Assay results from publication PMC11344848, “Proximity-driven site-specific cyclization of phage-displayed peptides” (Nature Communications, 2024).
Positions of bridges follow the written chain, without caps; N, C: chain ends. No end group written: not given here. CCA = cyclopropenone-chloroacetamide linker between the two cysteines

Target: T1, streptavidin (UniProt P22629 25-183)
T1 construct: streptavidin; Plate-coated in the ELISA; covalently immobilised by amine coupling to a CM5 chip in SPR; Commercial streptavidin is often a truncated core form; source: bought: Pierce streptavidin-coated 96 well plate (Thermo Fisher Scientific) for the phage ELISA
Assay: SPR; Biacore 8K, 25 °C; streptavidin amine-coupled to a CM5 chip; peptides 4.1 – 9000 nM in HBS-EP+ pH 7.4 at 30 µL/min, 180 s association, 600 s dissociation
Settings: both partners purified

T1 sequence (P22629 25-183): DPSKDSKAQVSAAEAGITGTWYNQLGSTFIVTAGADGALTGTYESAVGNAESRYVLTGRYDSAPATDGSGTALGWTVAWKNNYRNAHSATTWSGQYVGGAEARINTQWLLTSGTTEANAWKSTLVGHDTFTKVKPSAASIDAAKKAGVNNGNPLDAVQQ

CPINIFHPPPDC (linker 1-12 via CCA) [synthetic peptide Str1-CCA] showed a Kd of 340 nM.
